Measured values published in the Human Domainome abundance scans (Beltran et al. 2025).
± gives the uncertainty stated by the source.

B1: Zinc finger MYM-type protein 3, residues 589 to 668; numbered along this chain, Q14202 (parent)
chain: LSCHYCHSLFSGKPEVLDWQDQVFQFCCRDCCEDFKRLRGVVSQCEHCRQEKLLHEKLRFSGVEKSFCSEGCVLLYKQDF

Variants of: B1
Assay: abundance fitness (aPCA) (normalised: wild type 0, dead -1); higher = more abundant; growth selection in yeast, the domain comes from the species named
Details: Homo sapiens

Variant	abundance fitness
C31I	-1.02 ± 0.26
C31R	-0.901 ± 0.08
C31W	-1.26 ± 0.21
C31D	-0.545 ± 0.12
C31Q	-0.668 ± 0.1
C31S	-0.986 ± 0.13
C31V	-1.14 ± 0.15
C31P	-1.02 ± 0.18
C31E	-0.573 ± 0.096
C31T	-1.02 ± 0.15
C31M	-0.778 ± 0.14
C31A	-0.655 ± 0.072
C31G	-0.8 ± 0.078
K52C	0.546 ± 0.21
K52S	-0.371 ± 0.16
K52A	-0.244 ± 0.14
K52M	-0.118 ± 0.28
K52W	-0.699 ± 0.18
K52P	-0.998 ± 0.35
K52E	-0.785 ± 0.23
K52R	-0.315 ± 0.1
K52G	-0.07 ± 0.078
K52V	-0.478 ± 0.22
E51A	-0.394 ± 0.16

Variant	abundance fitness
E51D	0.187 ± 0.35
E51G	-0.393 ± 0.12
E51C	0.227 ± 0.23
E51R	-0.198 ± 0.084
E51I	-0.546 ± 0.32
E51L	-0.119 ± 0.12
E51T	-0.096 ± 0.18
E51W	0.537 ± 0.098
E51V	-0.143 ± 0.12
E51H	0.675 ± 0.42
E51P	0.127 ± 0.16
E51Q	0.003 ± 0.41
V42E	-0.041 ± 0.12
V42R	-0.085 ± 0.088
V42Q	-0.203 ± 0.24
V42W	-0.01 ± 0.12
V42G	-0.265 ± 0.095
V42T	0.388 ± 0.12
V42P	0.176 ± 0.48
V42M	0.422 ± 0.12
H47P	-0.742 ± 0.42
H47V	0.075 ± 0.2
H47R	-0.098 ± 0.089
H47W	0.246 ± 0.13

Variant	abundance fitness
H47Q	0.151 ± 0.15
H47S	-0.098 ± 0.14
H47A	-0.169 ± 0.13
H47M	-0.061 ± 0.2
H47K	0.075 ± 0.29
H47L	-0.388 ± 0.14
H47C	0.345 ± 0.4
H47E	-0.406 ± 0.16
K36T	-0.011 ± 0.053
K36C	-0.294 ± 0.06
K36I	-0.313 ± 0.1
K36W	-0.181 ± 0.043
K36A	-0.077 ± 0.042
K36L	-0.101 ± 0.041
K36Q	0.034 ± 0.048
K36H	-0.089 ± 0.057
K36E	-0.01 ± 0.044
K36N	-0.251 ± 0.073
K36F	-0.088 ± 0.074
K36P	-0.615 ± 0.093
K36R	-0.077 ± 0.038
K36Y	-0.561 ± 0.14
K36G	-0.019 ± 0.039
K36S	-0.048 ± 0.042

Variant	abundance fitness
K36M	0.229 ± 0.044
C27V	-0.692 ± 0.06
C27P	-0.483 ± 0.062
C27M	-0.472 ± 0.07
C27S	-0.892 ± 0.086
C27R	-0.756 ± 0.055
C27Q	-0.653 ± 0.075
C27Y	-0.798 ± 0.32
C27W	-0.859 ± 0.072
C27N	-0.706 ± 0.099
L38R	0.087 ± 0.053
L38S	0.05 ± 0.057
L38T	0.264 ± 0.075
L38V	0.013 ± 0.059
L38Y	-0.041 ± 0.15
L38E	0.302 ± 0.14
L38W	0.243 ± 0.073
L38I	0.063 ± 0.16
L38C	0.11 ± 0.16
L38P	0.062 ± 0.078
C45G	-0.603 ± 0.095
C45L	-0.867 ± 0.19
C45E	-1.07 ± 0.29
C45W	-0.983 ± 0.3

Variant	abundance fitness
C45A	-0.666 ± 0.2
C45T	-0.641 ± 0.26
C45F	-0.356 ± 0.26
C45S	-0.942 ± 0.17
C45Y	-1.18 ± 0.4
C45R	-0.742 ± 0.13
C45Q	-1 ± 0.49
C45D	-0.658 ± 0.22
C45P	-1.1 ± 0.46
Q44T	0.959 ± 0.066
Q44E	0.49 ± 0.088
Q44V	0.767 ± 0.072
Q44G	0.185 ± 0.075
Q44C	0.397 ± 0.13
Q44F	1.01 ± 0.16
Q44A	0.702 ± 0.075
Q44K	1.04 ± 0.083
Q44P	0.818 ± 0.099
Q44W	0.53 ± 0.095
Q44Y	1.13 ± 0.34
Q44L	0.854 ± 0.079
Q44R	0.889 ± 0.075
Q44M	0.576 ± 0.14
Q44S	0.39 ± 0.12

Variant	abundance fitness
Q44I	0.547 ± 0.37
Q44D	0.204 ± 0.18
E46C	0.271 ± 0.2
E46R	-0.741 ± 0.16
E46S	0.385 ± 0.11
E46W	-0.245 ± 0.14
E46P	0.996 ± 0.28
E46G	0.085 ± 0.093
E46Y	-0.354 ± 0.38
E46A	0.932 ± 0.072
E46L	-0.116 ± 0.09
E46D	0.228 ± 0.23
E46Q	0.281 ± 0.21
E46T	0.24 ± 0.22
E46K	0.233 ± 0.26
E46M	-0.631 ± 0.27
R49D	-0.485 ± 0.46
R49Y	-0.618 ± 0.39
R49W	-0.327 ± 0.27
R49E	-0.361 ± 0.18
R49L	-0.131 ± 0.11
R49A	-0.507 ± 0.2
R49K	-0.084 ± 0.19
R49V	-0.785 ± 0.19

Variant	abundance fitness
R49F	-0.38 ± 0.2
R49T	-0.352 ± 0.14
R49S	0.283 ± 0.14
R49M	-0.482 ± 0.5
C28A	0.017 ± 0.041
C28G	0.08 ± 0.038
C28Q	0.087 ± 0.046
C28L	-0.758 ± 0.059
C28K	0.105 ± 0.063
C28R	0.074 ± 0.039
C28V	-0.321 ± 0.043
C28T	0.11 ± 0.047
C28S	-0.021 ± 0.044
C28Y	-0.557 ± 0.15
C28W	-0.973 ± 0.094
C28H	-0.081 ± 0.11
C28N	-0.16 ± 0.12
C28M	0.129 ± 0.046
C28D	0.041 ± 0.062
C28I	-0.703 ± 0.13
C28E	-0.228 ± 0.063
C28P	-0.607 ± 0.076
C28F	-0.83 ± 0.12
